PMC5777638 (Nature, 2018)

T1: RNA polymerase III subunit C128 (Saccharomyces cerevisiae, UniProt P22276 1-1149)
T1 sequence (looked up): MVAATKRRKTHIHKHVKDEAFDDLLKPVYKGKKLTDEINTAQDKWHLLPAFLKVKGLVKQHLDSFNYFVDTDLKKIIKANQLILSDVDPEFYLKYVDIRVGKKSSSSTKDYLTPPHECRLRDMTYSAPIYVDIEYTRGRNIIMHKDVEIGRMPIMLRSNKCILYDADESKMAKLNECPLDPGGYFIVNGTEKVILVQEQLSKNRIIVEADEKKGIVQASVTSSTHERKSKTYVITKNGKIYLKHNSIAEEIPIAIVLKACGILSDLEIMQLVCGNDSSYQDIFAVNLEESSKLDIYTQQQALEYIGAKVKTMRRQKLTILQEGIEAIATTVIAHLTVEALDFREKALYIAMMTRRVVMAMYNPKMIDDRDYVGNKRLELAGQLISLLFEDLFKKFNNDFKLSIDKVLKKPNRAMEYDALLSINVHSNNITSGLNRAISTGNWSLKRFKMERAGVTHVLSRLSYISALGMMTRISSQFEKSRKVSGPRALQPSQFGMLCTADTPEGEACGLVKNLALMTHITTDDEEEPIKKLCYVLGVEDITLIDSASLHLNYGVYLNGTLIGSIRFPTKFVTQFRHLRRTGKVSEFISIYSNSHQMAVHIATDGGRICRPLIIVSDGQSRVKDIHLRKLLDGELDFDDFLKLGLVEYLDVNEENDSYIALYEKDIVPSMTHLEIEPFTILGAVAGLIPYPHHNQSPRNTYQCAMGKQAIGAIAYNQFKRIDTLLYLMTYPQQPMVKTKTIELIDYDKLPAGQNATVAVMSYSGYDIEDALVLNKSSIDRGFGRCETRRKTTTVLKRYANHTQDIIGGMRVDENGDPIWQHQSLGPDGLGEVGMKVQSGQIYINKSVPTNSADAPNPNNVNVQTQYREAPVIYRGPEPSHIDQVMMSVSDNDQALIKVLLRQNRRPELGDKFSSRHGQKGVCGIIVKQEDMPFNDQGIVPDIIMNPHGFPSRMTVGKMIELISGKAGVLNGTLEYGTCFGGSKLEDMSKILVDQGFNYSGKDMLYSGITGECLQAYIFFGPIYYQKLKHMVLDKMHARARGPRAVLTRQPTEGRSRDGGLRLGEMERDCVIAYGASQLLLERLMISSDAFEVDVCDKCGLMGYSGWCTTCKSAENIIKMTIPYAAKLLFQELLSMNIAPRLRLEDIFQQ

B1: RNA polymerase III subunit C34 (natural protein, Saccharomyces cerevisiae, UniProt P32910 1-317, looked up)
chain: MSGMIENGLQLSDNAKTLHSQMMSKGIGALFTQQELQKQMGIGSLTDLMSIVQELLDKNLIKLVKQNDELKFQGVLESEAQKKATMSAEEALVYSYIEASGREGIWSKTIKARTNLHQHVVLKCLKSLESQRYVKSVKSVKFPTRKIYMLYSLQPSVDITGGPWFTDGELDIEFINSLLTIVWRFISENTFPNGFKNFENGPKKNVFYAPNVKNYSTTQEILEFITAAQVANVELTPSNIRSLCEVLVYDDKLEKVTHDCYRVTLESILQMNQGEGEPEAGNKALEDEEEFSIFNYFKMFPASKHDKEVVYFDEWTI

What was measured:
[1] = target: T1, RNA polymerase III subunit C128; test: cryo-EM structure
[2] = target: B1; test: cryo-EM structure

Binder	binding result [1]	binding result [2]
B1	binds	–
RNA polymerase III subunit C37 (natural protein, Saccharomyces cerevisiae, UniProt P36121 1-282, looked up) MSIDNKLFVTEEDEEDRTQDRADVEDESNDIDMIADENGTNSAIANEQEEKSEEVKAEDDTGEEEEDDPVIEEFPLKISGEEESLHVFQYANRPRLVGRKPAEHPFISAARYKPKSHLWEIDIPLDEQAFYNKDKAESEWNGVNVQTLKGVGVENNGQYAAFVKDMQVYLVPIERVAQLKPFFKYIDDANVTRKQEDARRNPNPSSQRAQVVTMSVKSVNDPSQNRLTGSLLAHKVADEEANIELTWAEGTFEQFKDTIVKEAEDKTLVALEKQEDYIDNLV	–	binds
